Patent US20200369754A1 (published 2020)

Target: T1, Tau peptide A6940 (biotin (bound via biotin to a streptavidin biosensor in the Octet assay; position of the biotin not stated))
T1 peptide: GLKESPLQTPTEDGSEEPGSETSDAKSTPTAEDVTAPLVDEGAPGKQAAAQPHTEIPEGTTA
Assay: ITC

- Kd: 220 nM
B1: CBTAU-28.1 (S32R[VL];E35K[VL]) (antibody, V domains shown)
VH: QVQLQQSGAEVKKPGESLKISCEASGYSFTNYWIGWVRQMPGKGLEWMGIIYPGDSDTRYSPPFQGQVTITADRSITTAYLEWSSLKASDTAMYYCARVGRPSKGGWFDPWGQGTLVTVSS
VL: DIQMTQSPDSLAVSLGERATINCESSQTLLYRSNKKNYLAWYQQKPGQPPKLLISWASTPESGVPDRFSGSGSGTSFTLTISSLQAEDVAVYYCQQYYNSPYTFGQGTRLEIK
